# Article PMC9929924, “Phosphorylation of the receptor protein Pex5p modulates import of proteins into peroxisomes” (Biological Chemistry, 2022)
# B1: Pex5p^WT: Pex5p wildtype, PTS1 receptor of S. cerevisiae (protein)
# chain: MDVGSCSVGNNPLAQLHKHTQQNKSLQFNQKNNGRLNESPLQGTNKPGISEAFISNVNAISQENMANMQRFINGEPLIDDKRRMEIGPSSGRLPPFSNVHSLQTSANPTQIKGVNDISHWSQEFQGSNSIQNRNADTGNSEKAWQRGSTTASSRFQYPNTMMNNYAYASMNSLSGSRLQSPAFMNQQQSGRSKEGVNEQEQQPWTDQFEKLEKEVSENLDINDEIEKEENVSEVEQNKPETVEKEEGVYGDQYQSDFQEVWDSIHKDAEEVLPSELVNDDLNLGEDYLKYLGGRVNGNIEYAFQSNNEYFNNPNAYKIGCLLMENGAKLSEAALAFEAAVKEKPDHVDAWLRLGLVQTQNEKELNGISALEECLKLDPKNLEAMKTLAISYINEGYDMSAFTMLDKWAETKYPEIWSRIKQQDDKFQKEKGFTHIDMNAHITKQFLQLANNLSTIDPEIQLCLGLLFYTKDDFDKTIDCFESALRVNPNDELMWNRLGASLANSNRSEEAIQAYHRALQLKPSFVRARYNLAVSSMNIGCFKEAAGYLLSVLSMHEVNTNNKKGDVGSLLNTYNDTVIETLKRVFIAMNRDDLLQEVKPGMDLKRFKGEFSF
# modifications: left off: His6, N-terminal, state not stated
# notes: Pex5p wildtype, PTS1 receptor of S. cerevisiae
# Legend:
# [1] = tested on: docking complex (Pex14p/Pex17p/Pex13p); test: Association of Pex5p variants with the peroxisomal docking complex; format: binding, S. cerevisiae; conditions: TPA-tagged Pex5p variants, digitonin-solubilized membrane fractions; immunoblot
# Protocol: Pex5p was affinity-purified from crude membrane and cytosolic fractions prepared from oleic acid-induced cells expressing TPA-tagged Pex5p as described before with slight modifications ([Agne et al. 2003]; [Schafer et al. 2004]). In brief, cytosolic and membrane fractions were prepared as described above using lysis buffer containing 10% (v/v) glycerol. For the analysis of Pex5p phosphorylation sites, crude membrane fractions were resuspended in glycerol-containing lysis buffer, the protein concentration was adjusted to 5 mg ml^−1, and proteins were solubilized using 1% (v/v) Triton X-100. Unsolubilized material was removed by centrifugation (100,000 g, 1 h, 4 °C). The cleared detergent extracts as well as cytosolic fractions were subjected to affinity purification via IgG Sepharose. Proteins bound to the matrix were eluted by incubation with AcTEV protease (Thermo Fisher Scientific/Invitrogen) followed by addition of Ni-NTA agarose to remove the His-tagged TEV protease. Eluted proteins were collected by centrifugation and precipitated by adding the fivefold volume of ice-cold acetone followed by incubation at −20 °C for at least 1 h. […]
# Immunoblot analyses were performed according to standard procedures. […] Quantification of immunoblot signals (Supplementary Figure 1E; n = 3) was performed using the software Image Studio Lite (LI-COR Biosciences).
# [2] = tested on: yeast cells; test: Growth of yeast cells expressing Pex5p variants; format: cell-based, S. cerevisiae; conditions: n = 3; for growth in oleate: oleate as sole carbon source (YNO medium)
# Description: Synthetic complete (SC) medium consisted of 0.17% (w/v) yeast nitrogen base (YNB) without amino acids, 0.5% (w/v) ammonium sulfate, and 0.3% (w/v) glucose (pH 6.0) supplemented with appropriate amino acids ([Schummer et al. 2017]). YNO medium contained 0.1% (v/v) oleic acid, 0.05% (v/v) Tween 40, 0.5% (w/v) ammonium sulfate, and 0.17% (w/v) yeast nitrogen base without amino acids, adjusted to pH 6.0 and supplemented with appropriate amino acids. For growth under peroxisome-proliferating conditions, cells were cultured at 30 °C in SC medium until they reached an optical density at 600 nm (OD600) of 1–1.5 and then shifted to YNO medium to induce peroxisome proliferation. Cells were grown for further 12–16 h or as indicated. For growth of cells in glucose medium, SC medium was supplemented with 2% (w/v) glucose.
# [3] = Native MS of purified individual proteins (oligomeric state); format: physicochemical; conditions: Pex5p 7.5 µM, Pcs60p 5 µM; 200 mM ammonium acetate pH 6.8
# Protocol: Recombinantly expressed Pex5p variants and Pcs60p protein solutions were buffer-exchanged into 200 mM ammonium acetate pH 6.8 at 4 °C using microcentrifuge gel filtration columns Bio-Spin 6 (Bio-Rad Laboratories). Protein concentration was determined spectrophotometrically using a Nanodrop 2000c (Thermo Scientific) by measuring absorption at 280 nm. Proteins were either analyzed individually or as mixture of Pex5p variant with Pcs60p at indicated concentrations to study receptor-cargo complex formation. For this, Pex5p^WT or Pex5p^2D mutant was incubated with Pcs60p for 5 min on ice. Spectra were obtained using a Synapt HDMS (Waters and MS Vision) equipped with an m/z 32,000 range quadrupole by introducing 3 µl sample with an in-house manufactured gold-coated capillary needle (Brosilicate Thin Wall with Filament Clark Capillary Glass, OD 1.0 mm, ID 0.78 mm; Harvard Apparatus). […]
# Spectra were calibrated externally using cesium iodide. […] Quantification of complex abundances was performed based on area under signals using a similar approach as previously described ([Danquah et al. 2019]; [Yefremova et al. 2017]). To compare stabilities of receptor-cargo complexes for Pex5p^WT and Pex5p^2D the collisional activation was quantified by calculating center-of-mass energies (E com) based on the abundance-weighted mean charge states of the 1:1 complex for each acceleration voltage. […]
molecule,measurement,setting,value
B1,composition of docking complex and abundance of individual proteins,[1],comparable irrespective of the Pex5p variant expressed
same,growth on glucose,"[2]; SC medium containing 2% glucose, compared to Pex5p^WT cells",equivalent to Pex5p^WT cells
same,growth in oleate,[2]; listed as Pex5p^2A,grew similar to wildtype cells in oleate
same,growth in oleate,[2]; listed as Pex5p^2D,significant growth defect
same,oligomeric state in native MS,[3],mainly detected in a monomeric state
